Results: patent US20180282719A1 (published 2018)

T1: recombinant soluble human IL-6 receptor (SR344) (human, UniProt P08887 20-344, biotinylated (sites not given) where immobilized via streptavidin or used in phage ELISA)
T1 construct: also called soluble IL-6 receptor; membrane-type IL-6 receptor (when biotinylated and immobilized on the chip)
T1 sequence (looked up): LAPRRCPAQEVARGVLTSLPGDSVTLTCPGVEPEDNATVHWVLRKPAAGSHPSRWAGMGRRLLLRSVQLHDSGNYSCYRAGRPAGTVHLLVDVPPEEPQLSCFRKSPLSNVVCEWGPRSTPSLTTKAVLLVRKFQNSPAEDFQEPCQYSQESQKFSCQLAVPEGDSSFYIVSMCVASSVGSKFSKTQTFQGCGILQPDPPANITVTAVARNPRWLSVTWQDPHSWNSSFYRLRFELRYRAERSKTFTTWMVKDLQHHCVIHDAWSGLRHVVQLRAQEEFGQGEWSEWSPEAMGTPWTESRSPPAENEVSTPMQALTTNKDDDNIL


What was measured:
[1] = biological target: T1, recombinant soluble human IL-6 receptor …; assay: SPR Biacore T100, biotinylated SR344 on streptavidin chip (model of membrane-type IL-6 receptor), antibody as analyte, 37 C
Procedure: (§1) Binding to the membrane-type IL-6 receptor was evaluated by evaluating binding to the IL-6 receptor immobilized on a sensor chip. SR344 was biotinylated in accordance with a method known among persons with ordinary skill in the art, and the biotinylated SR344 was immobilized on the sensor chip via streptavidin using the affinity between streptavidin and biotin. All the measurements were carried out at 37° C. The mobile phase buffer was 10 mM MES (pH 5.8), 150 mM NaCl and 0.05% TWEEN® 20 (polyoxyethelene sorbitan monolaurate).
(§2) The pH-dependently-binding clones were injected under the condition of pH 7.4 to allow them to bind to SR344, and then, the pH-dependent dissociation of each clone at the pH of the mobile phase, pH 5.8, was observed. The results are shown in FIG. 21 (results for Fv1-M71, Fv1-M73, Fv3-M71, and Fv3-M73 are shown in FIG. 21, while results for other clones are shown in FIGS. 17 and 19). Analyses were carried out in the same manner as in Example 10 and the pH dependencies of the dissociation rate constants of all of the eleven types of clones are shown in Table 12.

[2] = biological target: T1, recombinant soluble human IL-6 receptor …; assay: SPR Biacore T100, biotinylated SR344 on streptavidin chip (model of membrane-type IL-6 receptor), antibody as analyte, bound at pH 7.4, dissociation at pH 7.4, 37 C
Procedure: as §1, §2

[3] = biological target: T1, recombinant soluble human IL-6 receptor …; assay: SPR Biacore T100, biotinylated SR344 on streptavidin chip (model of membrane-type IL-6 receptor), antibody as analyte, bound at pH 7.4, dissociation at pH 5.8, 37 C
Procedure: as §1, §2

[4] = biological target: T1, recombinant soluble human IL-6 receptor …; assay: SPR Biacore T100, antibody captured by anti-IgG gamma chain F(ab)2, SR344 analyte, pH 7.4, 37 C
Procedure: Kinetic analyses of antigen-antibody reactions at pH 7.4 were carried out on the four types of antibodies, i.e., the humanized PM1 antibody (wild type: WT), and […], H3pI/L73-IgG1, Fv2-IgG1, and Fv4-IgG1 constructed in Examples 2 and 10, by using a Biacore T100™ surface plasmon resonance system (GE Healthcare) (buffer: 10 mM MES (pH 7.4), 150 mM NaCl, 0.05% TWEEN® 20 (polyoxyethelene sorbitan monolaurate)). Each antibody was bound on a sensor chip on which an anti-IgG γ chain specific F(ab)₂ (Pierce) was immobilized by amine coupling, and then, SR344 adjusted to a concentration of 9.8 to 40 nM was injected thereto as an analyte. The association to and dissociation from SR344 were observed on a real-time basis for the pH-dependent-binding clones. All the measurements were carried out at 37° C. Association rate constants kₐ (1/Ms) and dissociation rate constants kd (1/s) were calculated using Biacore T100™ Evaluation Software (GE Healthcare), and dissociation constants KD (M) were calculated on the basis of those values (Table 7).
The association to and dissociation from SR344 were observed on a real-time basis using the same method as Example 10 for the eleven types of antibodies, humanized PM1 antibody (wild type: WT) and H3pI/L73-IgG1, Fv1-M71, Fv1-M73, Fv2-IgG1, Fv3-M71, Fv3-M73, Fv4-IgG1, Fv4-IgG2, Fv4-M58, and Fv4-M73, constructed as described above. The association rate constants kₐ (1/Ms) and dissociation rate constants kd. (1/s) were calculated by analysis in the same manner, and the dissociation constants KD (M) were calculated on the basis of those values (Table 11).

Row | kd (pH 5.8)/kd (pH 7.4) [1] | koff [2] | koff [3] | Kd [4] | koff [4] | kon [4] | Binder
1 | 10.9 | 0.00049 s⁻¹ | 0.0053 s⁻¹ | 1000 pM | 0.00087 s⁻¹ | 850000 M⁻¹ s⁻¹ | Fv3-M73 (antibody) heavy: QVQLQESGPGLVKPSETLSLTCAVSGHSISHDHAWSWVRQPPGEGLEWIGFISYSGITNYNPTLQGRVTISRDNSKNTLYLQMNSLRAEDTAVYYCARSLARTTAMDYWGEGTLVTVSSASTKGPSVFPLAPSSKSTSGGTAALGCLVKDYFPEPVTVSWNSGALTSGVHTFPAVLQSSGLYSLSSVVTVPSSNFGTQTYTCNVDHKPSNTKVDKTVERKSCVECPPCPAPPVAGPSVFLFPPKPKDTLMISRTPEVTCVVVDVSQEDPEVQFNWYVDGVEVHNAKTKPREEQFNSTFRVVSVLTVVHQDWLNGKEYKCKVSNKGLPAPIEKTISKTKGQPREPQVYTLPPSQEEMTKNQVSLTCLVKGFYPSDIAVEWESNGQPENNYKTTPPMLDSDGSFFLYSKLTVDKSRWQEGNVFSCSVMHEALHAHYTQKSLSLSP light: DIQMTQSPSSLSASVGDSVTITCQASRDISSHLNWYQQKPGKAPELLIYYGSHLLSGVPSRFSGSGSGTDFTFTISSLEAEDAATYYCGQGNRLPYTFGQGTKVEIERTVAAPSVFIFPPSDEQLKSGTASVVCLLNNFYPREAKVQWKVDNALQSGNSQESVTEQDSKDSTYSLSSTLTLSKADYEKHKVYACEVTHQGLSSPVTKSFNRGEC
2 | 11.3 | 0.00061 s⁻¹ | 0.0069 s⁻¹ | 970 pM | 0.00054 s⁻¹ | 550000 M⁻¹ s⁻¹ | Fv1-M71 (antibody, human IgG2, kappa) heavy: QVQLQESGPGLVKPSETLSLTCAVSGYSISHDHAWSWVRQPPGEGLEWIGHISYSGITNYNPHLQDRVTISRDTSKNQFSLKLSSVTAADTAVYYCARFLARITAHDHWGEGTLVTVSSASTKGPSVFPLAPCSRSTSESTAALGCLVKDYFPEPVTVSWNSGALTSGVHTFPAVLQSSGLYSLSSVVTVPSSNFGTQTYTCNVDHKPSNTKVDKTVERKCCVECPPCPAPPVAGPSVFLFPPKPKDTLMISRTPEVTCVVVDVSHEDPEVQFNWYVDGVEVHNAKTKPREEQFNSTFRVVSVLTVVHQDWLNGKEYKCKVSNKGLPAPIEKTISKTKGQPREPQVYTLPPSREEMTKNQVSLTCLVKGFYPSDIAVEWESNGQPENNYKTTPPMLDSDGSFFLYSKLTVDKSRWQQGNVFSCSVMHEALHAHYTQKSLSLSPGK light: DIQMTQSPSSLSASVGDSVTITCQASRDISSHLNWYQQKPGKAPELLIYYGSHLESGVPSRFSGSGSGTDFTFTISSLEAEDAATYYCGQGNRLPYTFGQGTKVEIERTVAAPSVFIFPPSDEQLKSGTASVVCLLNNFYPREAKVQWKVDNALQSGNSQESVTEQDSKDSTYSLSSTLTLSKADYEKHKVYACEVTHQGLSSPVTKSFNRGEC
3 | 8.8 | 0.00037 s⁻¹ | 0.0032 s⁻¹ | 910 pM | 0.00055 s⁻¹ | 610000 M⁻¹ s⁻¹ | Fv1-M73 (antibody) heavy: QVQLQESGPGLVKPSETLSLTCAVSGYSISHDHAWSWVRQPPGEGLEWIGHISYSGITNYNPHLQDRVTISRDTSKNQFSLKLSSVTAADTAVYYCARFLARITAHDHWGEGTLVTVSSASTKGPSVFPLAPSSKSTSGGTAALGCLVKDYFPEPVTVSWNSGALTSGVHTFPAVLQSSGLYSLSSVVTVPSSNFGTQTYTCNVDHKPSNTKVDKTVERKSCVECPPCPAPPVAGPSVFLFPPKPKDTLMISRTPEVTCVVVDVSQEDPEVQFNWYVDGVEVHNAKTKPREEQFNSTFRVVSVLTVVHQDWLNGKEYKCKVSNKGLPAPIEKTISKTKGQPREPQVYTLPPSQEEMTKNQVSLTCLVKGFYPSDIAVEWESNGQPENNYKTTPPMLDSDGSFFLYSKLTVDKSRWQEGNVFSCSVMHEALHAHYTQKSLSLSP light: DIQMTQSPSSLSASVGDSVTITCQASRDISSHLNWYQQKPGKAPELLIYYGSHLESGVPSRFSGSGSGTDFTFTISSLEAEDAATYYCGQGNRLPYTFGQGTKVEIERTVAAPSVFIFPPSDEQLKSGTASVVCLLNNFYPREAKVQWKVDNALQSGNSQESVTEQDSKDSTYSLSSTLTLSKADYEKHKVYACEVTHQGLSSPVTKSFNRGEC
4 | 10.7 | 0.00091 s⁻¹ | 0.0097 s⁻¹ | 1100 pM | 0.00082 s⁻¹ | 780000 M⁻¹ s⁻¹ | Fv3-M71 (antibody, human IgG2, kappa) heavy: QVQLQESGPGLVKPSETLSLTCAVSGHSISHDHAWSWVRQPPGEGLEWIGFISYSGITNYNPTLQGRVTISRDNSKNTLYLQMNSLRAEDTAVYYCARSLARTTAMDYWGEGTLVTVSSASTKGPSVFPLAPCSRSTSESTAALGCLVKDYFPEPVTVSWNSGALTSGVHTFPAVLQSSGLYSLSSVVTVPSSNFGTQTYTCNVDHKPSNTKVDKTVERKCCVECPPCPAPPVAGPSVFLFPPKPKDTLMISRTPEVTCVVVDVSHEDPEVQFNWYVDGVEVHNAKTKPREEQFNSTFRVVSVLTVVHQDWLNGKEYKCKVSNKGLPAPIEKTISKTKGQPREPQVYTLPPSREEMTKNQVSLTCLVKGFYPSDIAVEWESNGQPENNYKTTPPMLDSDGSFFLYSKLTVDKSRWQQGNVFSCSVMHEALHAHYTQKSLSLSPGK light: DIQMTQSPSSLSASVGDSVTITCQASRDISSHLNWYQQKPGKAPELLIYYGSHLLSGVPSRFSGSGSGTDFTFTISSLEAEDAATYYCGQGNRLPYTFGQGTKVEIERTVAAPSVFIFPPSDEQLKSGTASVVCLLNNFYPREAKVQWKVDNALQSGNSQESVTEQDSKDSTYSLSSTLTLSKADYEKHKVYACEVTHQGLSSPVTKSFNRGEC
